± gives the uncertainty stated by the source.

This note sets out measurements from the supplement of paper PMC12042874.

The data set can be described thus: amyloid nucleation score (Sup35N fusion, yeast selection) (log enrichment); library NNK1; higher = more nucleation; inactive = no reads after selection. The essentials:
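The nucleation score is the DiMSum log enrichment of output over input reads, centred on the mode score of non-aggregating sequences. Only sequences with 100 or more input reads were scored, using Illumina sequencing of input and output plasmid inserts. Psi-negative yeast expressing Sup35N fused to peptides of 20 random codons were induced 24 hours with 100 μM copper sulfate and grown 7 days at 30°C on medium lacking adenine and uracil.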
LVLGAVV: the amyloid nucleation score was -0.104 ± 0.87.
Turning to LVLIRKLVWGSGSDTLWVRR, the amyloid nucleation score entry is “inactive”.
In the case of LVMCFVMGMLNLDAGLIMRM, the amyloid nucleation score was 0.425 ± 0.37.
Substance LVMGMHYSLVV had an amyloid nucleation score of 0.125 ± 0.46.
As to LVMLRCAMTLCSIMLNYTPR, the amyloid nucleation score was 0.89 ± 0.39.
For LVNIHVIQKAFVGTVASSKV the value was 5.07 ± 0.067; for LVNNSSCYHCQRLGQLEVNK, 0.215 ± 0.33; for LVRAIIANCAYFCQFRFSLG, 0.944 ± 0.69.
As to LVSQVFNVQRYGGRTVPQSF, the amyloid nucleation score amounted to 0.364 ± 1.2.
For LVVLLIRTNCVKRKEFGERA the value was -2.04 ± 2.4.
LVYILMLYWVYGQIGNFSLV: the amyloid nucleation score is -0.955 ± 0.9.
LWAFIIGIVSTTLLGYKPFH showed an amyloid nucleation score of -0.344 ± 1.1.
The same measure for LWFNSDLIE: -0.369 ± 0.35; for LWGDYPFRDVPRTMVDQRRN: 0.079 ± 0.98; for LWKGATRCHKVLRMLENDND: -0.606 ± 0.9.
With LWKNVVWTTGPIIASWVSDL, the amyloid nucleation score came to 2.04 ± 0.11.
The same measure for LWLRCLSIAAGIHQ: 2.31 ± 0.12; for LWMYYESFF: 0.843 ± 0.6.
LWVRSKFRSC showed an amyloid nucleation score of -0.08 ± 1.1.
The same measure for LWVSNSSIRLDRNINQTLAT: 0.019 ± 1.4; for LWYCYYSVVFILSGALSHCV: -0.252 ± 1.4.
On to LYCSNLILVWLFCRSDISVR, for which the amyloid nucleation score is 5.17 ± 0.056.
Turning to LYESELLNNHQETSPQSSEG, the amyloid nucleation score is -0.349 ± 0.56.
The same measure for LYGFANYFRFMRYWTRNVVP: 0.124 ± 1.2; for LYIFGAY: -1.26 ± 0.53.
LYIFLNEDDRFSMKQGVKGG showed an amyloid nucleation score of 0.546 ± 0.83.
The same measure for LYIMGRLDFIFRWVTGGFDT: -0.838 ± 0.77; for LYIMLLLLLLTSQYT: -0.347 ± 0.63; for LYLLSDNFR: 1.68 ± 0.72.
In the case of LYNLGHDSVGDLSFFCLRGW, the amyloid nucleation score was -0.427 ± 0.36.
The substance LYNSRTWMIGIGSPAQIV yielded an amyloid nucleation score of -0.731 ± 0.61.
LYSGFNRSKRSAVNSICAH showed an amyloid nucleation score of 0.368 ± 0.18.
LYSLATIDNYMPWCQGSSGS: the amyloid nucleation score entry was “inactive”.
Regarding LYVFHRRYYWANYDDRYPLP, the amyloid nucleation score came out at 0.613 ± 0.48.
Take MCGFF: the amyloid nucleation score was -0.178 ± 0.57.
For MCLAMSIFDKTENK the value was -0.731 ± 0.73.
With MCLFENMFDHFSGSLQSHGG, the amyloid nucleation score was 0.318 ± 0.27.
As to MCYVRMTFGTRDCHERVSLS, the amyloid nucleation score result is “inactive”.
In turn, MDARKTGTDNWRTS gave an amyloid nucleation score of -0.202 ± 0.32.
For MDQFDLGSYSCASFQDTPAL the value was 1.39 ± 0.18; for MDRNFSILTF, “inactive”; for MDVIFGLMS, 0.729 ± 0.51.
As to MEKYYGQLLKDY, the amyloid nucleation score came out at 0.224 ± 0.29.
For MFDTRDRMAALTFVKRMWCK the value was “inactive”.
On to MFFSSIYVAYYGLLLIYSYM, for which the amyloid nucleation score result was “inactive”.
MFNKVSLSVWASFVWKIIIH came in with an amyloid nucleation score of -0.654 ± 0.83.
Turning to MFSNILHAHLRAWA, the amyloid nucleation score came to 0.53 ± 0.27.
Turning to MFSRF, the amyloid nucleation score turned out to be 0.607 ± 0.79.
MFSSVLIWKY had an amyloid nucleation score of 1.12 ± 0.56.
In turn, MGAVKH displayed an amyloid nucleation score of -0.017 ± 0.3.
MGDSISVFMKSRFCVCTWGG: the amyloid nucleation score entry was “inactive”.
For MGGRSPMELAISRVVVVVKW, the amyloid nucleation score entry was “inactive”.
Substance MGLFFERSVKCSLF came in with an amyloid nucleation score of -0.946 ± 1.1.
In the case of MGLSLPSFW, the amyloid nucleation score was -0.516 ± 1.7.
The same measure for MGNHCLTR: 1.12 ± 0.58; for MGQGLCPRSYMFLVCELIVF: 0.818 ± 0.43; for MHISWPYYRHDIVRRKSCSA: 0.011 ± 0.29.
The same measure for MINTTMRSDRRNNWLG: 2.94 ± 0.064; for MIRPVFLVFVYMLFCLGNCT: 0.383 ± 0.28.
For the substance MISFCSSWKLEQYEWWRRNL, the amyloid nucleation score turned out to be 1.35 ± 0.32.
For MITWMYASWYNRPVLVYQFW, the amyloid nucleation score was 0.233 ± 0.28.
The same measure for MKVIDFVGFPFMGWRKWKTW: -0.063 ± 0.35.
Take MLCFSLVYNGREGYEINLLH: the amyloid nucleation score is -0.552 ± 0.31.
For MLGLWIVARLVLSVDSQRVE the value was “inactive”; for MLHICCFQSVHLMDWSSH, -0.144 ± 0.67.
For MLHYAWVGLSVNDMVLPEMC the value was -0.78 ± 0.67; for MLLIVPLFDSEVVWPGVVWT, -0.235 ± 0.66.
Substance MLLSH came in with an amyloid nucleation score of 4.34 ± 0.056.
The same measure for MLLWVWMEFY: 0.991 ± 0.33.
Substance MLNELWVQRWINLSLKYDNQ had an amyloid nucleation score of 0.957 ± 0.45.
For the substance MLPQSSSRQLRVGCASLCNM, the amyloid nucleation score was -0.148 ± 0.6.
As to MLRFRCVRQP, the amyloid nucleation score was 0.102 ± 0.35.
For MLRTAMKCWSTSMGDCLEAF, the amyloid nucleation score amounted to 0.619 ± 0.48.
Consider MLSGP, for which the amyloid nucleation score is -0.161 ± 0.67.
The same measure for MLWFSGCPRGGQRGVCESQG: 0.284 ± 0.55; for MMLLYCRLIWSPISDRICQF: -0.498 ± 0.42.
For MMVFKVSFKVIKVT the value was -0.07 ± 0.86; for MMYSIVRMLAFNAWSMR, 0.681 ± 0.49; for MNDVNLFMEYNKSFYVDFYM, 1.61 ± 0.15.
MNGYLRLHSDTNCSCC: the amyloid nucleation score result is “inactive”.
The same measure for MNRHGYHNIWWYTTSHGLYT: -1.05 ± 2.7; for MNTLYCWGKCGLVTSLVGLI: 0.059 ± 0.73.
Consider MNYVSMHDYYRVVH, for which the amyloid nucleation score worked out at 0.128 ± 0.61.
Regarding MPGLWVFASALTQQEGTLEM, the amyloid nucleation score was -0.251 ± 0.79.
For MPKCSTLNTKVFRPMVWFSV the value was 1.43 ± 0.29; for MPTRKTMDGYASIEF, -0.486 ± 0.41; for MPVFSFLWPMKDMPHKVLS, 0.364 ± 0.36.
On to MQNMNEVSIINVAERVVNGG, for which the amyloid nucleation score entry is “inactive”.
On to MQSLRLTESSGPFSLYFAFI, for which the amyloid nucleation score was -0.227 ± 0.81.
On to MRAEVALFCGNSASVVCGAW, for which the amyloid nucleation score is -0.221 ± 0.34.
For MREELRGSETG the value was -0.685 ± 0.63.
For MRFYAMGRDVYICCDGNKIL the value was 5.07 ± 0.066; for MRIHCVN, -0.529 ± 2.1.
With MRISMSVSLLFSYSQYVKLE, the amyloid nucleation score is -0.238 ± 0.9.
The same measure for MRKVYNEWLKTNYYKHMNRV: 0.452 ± 0.51; for MRLHLGWNYEMHRKNRALSI: -0.312 ± 1.4; for MRLSQGGPLRLPRVTFSRYC: 0.027 ± 1.7.
The same measure for MRLTNGSCHFVLF: -0.745 ± 1.7; for MRMISFKTVGALFVYCLSLG: 0.313 ± 0.49.
MRNYGILFPYLFYMSVSRVL displayed an amyloid nucleation score of -0.067 ± 1.7.
Substance MRQAGACNLRQSHVEQVCQQ displayed an amyloid nucleation score of 0.135 ± 0.38.
Substance MRSFAFWNYVFGRGMFPVFW had an amyloid nucleation score of -0.272 ± 0.41.
The same measure for MRTRWSIIMDVRYDNSV: 1.55 ± 0.21; for MSAIVSHYLVHCKFQSGNSH: 3.63 ± 0.12.
For MSLNRDNDYSKLLFGSKVSQ the value was 0.477 ± 0.43.
MSLPYVICQQDR yielded an amyloid nucleation score of -0.794 ± 1.4.
For MSLSAVSNMVLMKGVGMR the value was -0.73 ± 0.93.
MSMDWICVTTYKAWSARLER registered an amyloid nucleation score of 0.689 ± 0.26.
As for MSNRISLQQLDRCQDDFMA, the amyloid nucleation score came out at 0.034 ± 0.38.
Regarding MSSHVTHAS, the amyloid nucleation score came to 0.495 ± 1.
In the case of MSSLQG, the amyloid nucleation score is -0.246 ± 1.1.
For the substance MSSSKGVVYDCFCSMWWLLP, the amyloid nucleation score came out at 0.018 ± 0.73.
In turn, MSYCFF came in with an amyloid nucleation score of 0.022 ± 0.55.
Substance MTIQVTIGNYLGLVYFFPLS returned an amyloid nucleation score of 1.05 ± 0.97.
Regarding MTMAFRKLFSVVRILMNMRL, the amyloid nucleation score was found to be 0.059 ± 0.3.
For the substance MTMKLFRQD, the amyloid nucleation score was -0.049 ± 1.1.
MTPEAL: the amyloid nucleation score was -0.063 ± 0.43.
The same measure for MVDSVMD: -0.21 ± 0.79; for MVDSYWGWCAMK: 1.22 ± 0.61; for MVGDARFYAANSG: 1.14 ± 0.79.
Substance MVGVLVKVREKAVMGPGQFG gave an amyloid nucleation score of 0.804 ± 0.29.
With MVHMCWLTME, the amyloid nucleation score is 0.454 ± 0.25.
The same measure for MVKYPVTKNSSLPCSTRLTF: 1.01 ± 0.47.
Consider MVLRHRKCLSAFPWAFHAPY, for which the amyloid nucleation score worked out at 1.49 ± 0.85.
Take MVNWEARQ: the amyloid nucleation score was found to be 0.862 ± 0.64.
MVRCNYRRRVGGDT registered an amyloid nucleation score of 0.905 ± 0.69.
The same measure for MVRWFWVVGHQVFTYVRLWR: -0.076 ± 0.74; for MVSSCWICRALKAYVLQPWV: 0.108 ± 0.72.
MWFRTAST registered an amyloid nucleation score of 6.339 ± 0.047.
For MWGFWTFFDGLAYPFVMHKT, the amyloid nucleation score stood at 0.054 ± 0.53.
MWLKSNNWRNKADDLQGKVD yielded an amyloid nucleation score of 0.523 ± 0.58.
The same measure for MWTNWDVLPELDGTPRALLW: -0.501 ± 0.99; for MYASRNNFNSFTGYRYSSVS: -0.077 ± 0.21.
With MYCITDEVNRYKCCKTGKEF, the amyloid nucleation score amounted to 0.634 ± 0.32.
Consider MYCWY, for which the amyloid nucleation score result is “inactive”.
MYETWFTFRWKLTDI came in with an amyloid nucleation score of -0.007 ± 0.39.
Substance MYGLLEDERTVCQWKMICVV displayed an amyloid nucleation score of -0.157 ± 0.69.
With MYISYLYFCYKRSMYFG, the amyloid nucleation score came out at 0.718 ± 1.1.
Substance MYLCVRLGSIKYFSGVLWS gave an amyloid nucleation score of 0.056 ± 1.4.
For the substance MYMIWEQGKPCSILDTHTVT, the amyloid nucleation score was 0.598 ± 0.26.
